Literature values, collected in patent US20210000129A1, “COMPOSITION FOR LOWERING BLOOD PRESSURE AND/OR REDUCING NEUTRAL FATS” (MORINAGA MILK INDUSTRY CO., LTD., priority 2018, published 2021).

Legend:
dipeptidyl-peptidase IV = dipeptidyl-peptidase IV (Homo sapiens, UniProt P27487); conditions: known from References 1 to 3
[1] = molecular target: angiotensin converting enzyme (Homo sapiens, UniProt P12821); conditions: known from References 1 to 3
Chain of angiotensin converting enzyme (P12821 30-1306, species assumed): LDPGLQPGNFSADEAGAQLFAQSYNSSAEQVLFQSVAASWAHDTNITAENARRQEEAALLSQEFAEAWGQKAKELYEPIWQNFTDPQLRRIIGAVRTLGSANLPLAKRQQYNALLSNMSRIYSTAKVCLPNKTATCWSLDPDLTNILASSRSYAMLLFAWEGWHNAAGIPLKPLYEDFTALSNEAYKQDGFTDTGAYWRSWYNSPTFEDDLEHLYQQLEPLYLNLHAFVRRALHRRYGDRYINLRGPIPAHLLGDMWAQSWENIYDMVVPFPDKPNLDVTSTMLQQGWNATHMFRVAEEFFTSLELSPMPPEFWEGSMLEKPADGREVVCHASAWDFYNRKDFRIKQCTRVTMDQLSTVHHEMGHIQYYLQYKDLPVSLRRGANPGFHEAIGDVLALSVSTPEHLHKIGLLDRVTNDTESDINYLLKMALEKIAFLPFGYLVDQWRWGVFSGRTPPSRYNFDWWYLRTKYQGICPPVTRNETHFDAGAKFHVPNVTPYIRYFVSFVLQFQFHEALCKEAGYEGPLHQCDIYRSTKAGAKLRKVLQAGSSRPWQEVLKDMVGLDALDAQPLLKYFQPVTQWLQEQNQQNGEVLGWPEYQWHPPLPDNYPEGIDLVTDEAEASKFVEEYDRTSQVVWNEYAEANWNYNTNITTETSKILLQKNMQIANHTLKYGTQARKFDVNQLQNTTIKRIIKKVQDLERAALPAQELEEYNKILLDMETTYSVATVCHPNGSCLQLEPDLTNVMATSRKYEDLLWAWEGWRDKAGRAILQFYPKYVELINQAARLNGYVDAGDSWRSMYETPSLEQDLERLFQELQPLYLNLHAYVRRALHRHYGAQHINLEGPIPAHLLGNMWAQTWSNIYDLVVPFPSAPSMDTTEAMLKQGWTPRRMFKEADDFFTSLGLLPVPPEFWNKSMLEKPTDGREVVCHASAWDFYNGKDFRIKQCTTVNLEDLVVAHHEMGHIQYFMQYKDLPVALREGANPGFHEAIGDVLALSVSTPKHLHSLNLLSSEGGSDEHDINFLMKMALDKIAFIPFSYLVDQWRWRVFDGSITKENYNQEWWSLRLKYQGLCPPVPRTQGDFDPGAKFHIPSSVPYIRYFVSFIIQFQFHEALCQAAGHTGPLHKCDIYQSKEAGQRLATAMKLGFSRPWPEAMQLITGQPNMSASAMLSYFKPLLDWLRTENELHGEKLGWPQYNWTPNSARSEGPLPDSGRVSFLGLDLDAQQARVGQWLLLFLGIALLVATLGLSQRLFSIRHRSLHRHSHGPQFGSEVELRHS

Chain of dipeptidyl-peptidase IV (P27487 whole entry, species assumed): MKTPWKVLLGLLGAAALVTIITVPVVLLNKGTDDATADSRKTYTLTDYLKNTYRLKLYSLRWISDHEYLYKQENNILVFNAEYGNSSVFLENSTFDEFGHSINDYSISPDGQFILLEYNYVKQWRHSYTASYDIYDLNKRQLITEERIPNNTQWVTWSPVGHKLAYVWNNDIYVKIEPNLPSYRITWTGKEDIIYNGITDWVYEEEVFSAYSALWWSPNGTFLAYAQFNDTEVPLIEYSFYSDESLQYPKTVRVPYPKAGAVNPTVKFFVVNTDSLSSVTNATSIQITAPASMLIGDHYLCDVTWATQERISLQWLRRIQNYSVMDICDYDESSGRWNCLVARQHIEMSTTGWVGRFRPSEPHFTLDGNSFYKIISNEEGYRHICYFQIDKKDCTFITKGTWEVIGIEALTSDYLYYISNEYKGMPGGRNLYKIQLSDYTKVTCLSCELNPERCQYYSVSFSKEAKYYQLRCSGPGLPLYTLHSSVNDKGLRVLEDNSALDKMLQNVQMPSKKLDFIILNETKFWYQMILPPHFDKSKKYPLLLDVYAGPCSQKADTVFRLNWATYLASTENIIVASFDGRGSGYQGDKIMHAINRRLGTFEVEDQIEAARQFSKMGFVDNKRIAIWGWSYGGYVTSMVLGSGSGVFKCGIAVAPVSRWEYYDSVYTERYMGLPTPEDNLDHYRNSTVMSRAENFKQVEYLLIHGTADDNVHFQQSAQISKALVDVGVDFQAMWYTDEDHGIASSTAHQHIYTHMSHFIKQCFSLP

**Q.** With Met-Lys-Pro (MKP) [tripeptide MKP] as the substance, how does the “dipeptidyl-peptidase IV-inhibiting action” value (dipeptidyl-peptidase IV) read?
**A.** Its value is “dipeptidyl-peptidase IV-inhibiting action”.

**Q.** And the “angiotensin converting enzyme-inhibiting action” value [1]?
**A.** The value was “angiotensin converting enzyme-inhibiting action”.
